According to patent US20230304022, “CHIMERIC POLYPEPTIDES HAVING TARGETED BINDING SPECIFICITY” (The Scripps Research Institute, published 2023):

B1: G-Avr15 site (dsDNA)
DNA 1: GATAAACCCCCTCCAA
DNA 2: TTGGAGGGGGTTTATC
B2: A-Avr15 site (dsDNA)
DNA 1: AATAAACCCCCTCCAA
DNA 2: TTGGAGGGGGTTTATT

Columns and labels:
Avr15 TALE NTD SSR = Avr15 TALE NTD SSR (synthetic, UniProt Q56830 SEQ:151-834, K230S,Q231S,W232R (KQW to SSR))
Avr15 TALE NTD KRSNG = Avr15 TALE NTD KRSNG (synthetic, UniProt Q56830 SEQ:151-834, Q231R,W232S,S233N (KQWSG to KRSNG))
Avr15 TALE NTD SRC = Avr15 TALE NTD SRC (synthetic, UniProt Q56830 SEQ:151-834, K230S,Q231R,W232C (KQW to SRC))
Avr15 TALE NTD PTR = Avr15 TALE NTD PTR (synthetic, UniProt Q56830 SEQ:151-834, K230P,Q231T,W232R (KQW to PTR))
Avr15 TALE NTD PKD = Avr15 TALE NTD PKD (synthetic, UniProt Q56830 SEQ:151-834, K230P,Q231K,W232D (KQW to PKD))

Binder | binding result (Avr15 TALE NTD SSR) | binding result (Avr15 TALE NTD KRSNG) | binding result (Avr15 TALE NTD SRC) | binding result (Avr15 TALE NTD PTR) | binding result (Avr15 TALE NTD PKD)
B1 | binds | binds | binds | – | –
B2 | – | – | – | binds | binds
